Data on 1 substance can be found in PMC4941327.

This test deals with mAb04-MICA antibody fusion protein (human) (UniProt Q29983). Briefly: SPR; Biacore X100; mAb04-MICA captured on a CM5 chip by anti-human IgG (Fc) antibody; soluble NKG2D injected at 7.8125-250 nM; HBS-EP pH 7.4; bivalent analyte model (the results say 2:1 binding model). For orientation: SPR reads the build-up and loss of mass on a sensor chip optically.
UniProt Q29983, sequence (Q29983 whole entry, looked up, the tested form may be a part): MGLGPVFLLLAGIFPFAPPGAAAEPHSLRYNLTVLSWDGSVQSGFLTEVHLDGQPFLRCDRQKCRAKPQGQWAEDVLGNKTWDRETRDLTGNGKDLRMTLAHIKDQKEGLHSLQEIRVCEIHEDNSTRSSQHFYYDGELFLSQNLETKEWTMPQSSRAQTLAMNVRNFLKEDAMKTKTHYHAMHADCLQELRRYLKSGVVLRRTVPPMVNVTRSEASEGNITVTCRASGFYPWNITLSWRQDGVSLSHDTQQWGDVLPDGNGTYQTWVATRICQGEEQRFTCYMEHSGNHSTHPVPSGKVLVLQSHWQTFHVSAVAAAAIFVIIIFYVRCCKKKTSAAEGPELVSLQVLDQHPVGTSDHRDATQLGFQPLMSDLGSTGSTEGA

As a reminder, the koff is a measure of how fast the partners let go of each other. A higher koff goes with fast dissociation. The term kon denotes the rate constant with which the complex forms. Regarding “soluble recombinant NKG2D (from UniProt P26718 1-216) (receptor)”, the Kd is 710 nM, the koff is 188 s⁻¹ and the association rate constant (kon) is 2.65e+08 M⁻¹ s⁻¹.
